Experimental findings from patent publication US20220249679A1 (Mitsubishi Tanabe Pharma Corporation, priority 2018, published 2022) are described below.

Positions count from the first letter of the chain named.

To fix the notation:
T1: Human CD138 His (Homo sapiens, UniProt P18827)
T1 construct: His
T1 sequence (P18827 23-310): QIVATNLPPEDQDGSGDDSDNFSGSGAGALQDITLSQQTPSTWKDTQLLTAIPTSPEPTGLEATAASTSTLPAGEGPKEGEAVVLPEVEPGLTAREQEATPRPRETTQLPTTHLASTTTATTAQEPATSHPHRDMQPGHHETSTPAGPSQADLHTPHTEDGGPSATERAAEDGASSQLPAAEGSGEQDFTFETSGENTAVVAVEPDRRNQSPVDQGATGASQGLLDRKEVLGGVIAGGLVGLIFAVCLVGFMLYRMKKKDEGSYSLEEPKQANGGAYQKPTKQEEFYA

B1: F6 ckf-rep: humanized anti-CD138 antibody; VH SEQ ID NO:90, VL SEQ ID NO:43 (antibody, V domains shown)
VH: QVQLVQSGAEVVKPGASVKLSCKASGYTFTSYYLYWVKKAPGQGLDWIGEIYPRSGGTNINEKFLSRVTLTADTSTSTAYLELSSLTSEDTAVYYCTRSLLYWGQGTTLTVSS
VL: DVVMTQSPLSLSVTLGQPASISCKSSQSLLASDGKTYLNWLQQRPGQSPRRLIYLVSKLDSGVPNRFSGSGSGTDFTLQISRVEAEDVGLYYCWQGAHFPFTFGSGTKLEIKR
modifications: Humanized Heavy chain variable region; Humanized Light chain variable region
B2: F6 f2kf-rep: humanized anti-CD138 antibody; VH SEQ ID NO:92, VL SEQ ID NO:43 (antibody, V domains shown)
VH: B1 VH with V5Q, L70I, T74E, A79V, L81M, E82Q, T91S
VL: B1 VL
modifications: Humanized Heavy chain variable region; Humanized Light chain variable region
B3: F6 aka-rep: humanized anti-CD138 antibody; VH SEQ ID NO:89, VL SEQ ID NO:42 (antibody, V domains shown)
VH: B1 VH with I60Y, N61A, L65Q, S66G
VL: B1 VL with S7T, L15P, Q42L, R50K, W94M, S105G, L109V
modifications: Humanized Heavy chain variable region; Humanized Light chain variable region
B4: F6 f1ka-rep: humanized anti-CD138 antibody; VH SEQ ID NO:91, VL SEQ ID NO:42 (antibody, V domains shown)
VH: B1 VH with V5Q, L81M, E82D
VL: B1 VL with S7T, L15P, Q42L, R50K, W94M, S105G, L109V
modifications: Humanized Heavy chain variable region; Humanized Light chain variable region
B5: F6 akf-rep: humanized anti-CD138 antibody; VH SEQ ID NO:89, VL SEQ ID NO:43 (antibody, V domains shown)
VH: B1 VH with I60Y, N61A, L65Q, S66G
VL: B1 VL
modifications: Humanized Heavy chain variable region; Humanized Light chain variable region
B6: F6 f1ks-rep: humanized anti-CD138 antibody; VH SEQ ID NO:91, VL SEQ ID NO:41 (antibody, V domains shown)
VH: B1 VH with V5Q, L81M, E82D
VL: B1 VL with S7T, L15P, Q42L, R50K
modifications: Humanized Heavy chain variable region; Humanized Light chain variable region
B7: F6 aks-rep: humanized anti-CD138 antibody; VH SEQ ID NO:89, VL SEQ ID NO:41 (antibody, V domains shown)
VH: B1 VH with I60Y, N61A, L65Q, S66G
VL: B1 VL with S7T, L15P, Q42L, R50K
modifications: Humanized Heavy chain variable region; Humanized Light chain variable region
B8: F6 f2ks-rep: humanized anti-CD138 antibody; VH SEQ ID NO:92, VL SEQ ID NO:41 (antibody, V domains shown)
VH: B1 VH with V5Q, L70I, T74E, A79V, L81M, E82Q, T91S
VL: B1 VL with S7T, L15P, Q42L, R50K
modifications: Humanized Heavy chain variable region; Humanized Light chain variable region
B9: F6 f1kf-rep: humanized anti-CD138 antibody; VH SEQ ID NO:91, VL SEQ ID NO:43 (antibody, V domains shown)
VH: B1 VH with V5Q, L81M, E82D
VL: B1 VL
modifications: Humanized Heavy chain variable region; Humanized Light chain variable region
B10: F6 cka-rep: humanized anti-CD138 antibody; VH SEQ ID NO:90, VL SEQ ID NO:42 (antibody, V domains shown)
VH: B1 VH
VL: B1 VL with S7T, L15P, Q42L, R50K, W94M, S105G, L109V
modifications: Humanized Heavy chain variable region; Humanized Light chain variable region
B11: F6 f2ka-rep: humanized anti-CD138 antibody; VH SEQ ID NO:92, VL SEQ ID NO:42; two lots (antibody, V domains shown)
VH: B1 VH with V5Q, L70I, T74E, A79V, L81M, E82Q, T91S
VL: B1 VL with S7T, L15P, Q42L, R50K, W94M, S105G, L109V
modifications: Humanized Heavy chain variable region; Humanized Light chain variable region
notes: humanized anti-CD138 antibody; two lots
B12: F11AP11E5: murine anti-CD138 hybridoma antibody; VH SEQ ID NO:87, VL SEQ ID NO:39 (antibody, listed as Mus musculus, V domains shown)
VH: QVQLQQSGAELVKPGASVKLSCKASGYTFTNYYMYWVKQRPGQGLEWIGEINPGNGGTNFNEKFKNKATLTVDKSSSTAYMQLSSLTSEDSAVYYCTTRFAYWGQGTLVIVSA
VL: DVVMTQTPLSLSVTIGQPASISCKSGQSLLYSNGKTYLTWLQQRPGQAPKLLMYQVSKLDPGIPDRFSGSGSETDFTLKISRVEAEDLGVYYCLQNTYYPHTFGAGTKLELKR
B13: F12P7G11: murine anti-CD138 hybridoma antibody; VH SEQ ID NO:85, VL SEQ ID NO:37 (antibody, listed as Mus musculus, V domains shown)
VH: QVQLQQSGAELARPGASVKLSCKASGYTFSSHWMQWVKQRPGQGLEWIGAIYPGDGDTRFTQKFKGKATLTADKSSNTAYMQLSSLASEDSAVYYCARGIYYDRSRAMDYWGQGTSVTVSS
VL: QIVLSQSPAILSASPGEKVTMTCRASSSVNYMHWYQQKPGSSPKHWIYATSYLASGVPARFSGSGSGTSYSLTISRVEAEDAATYYCQQWSSDPLTFGAGTKLELKR
B14: F13P14D3: murine anti-CD138 hybridoma antibody; VH SEQ ID NO:86, VL SEQ ID NO:38 (antibody, listed as Mus musculus, V domains shown)
VH: EVQLVESGGGLVQPKGSLKLSCATSGFTFNTYAMNWVRQAPGKGLEWVARIRSKSNNYATYYVDSVKDRFTISRDDSQSTVHLQMNNLKTEDTAIYYCVTDYGHVYFDVWGAGTTVTVSS
VL: NIVMTQSPKSMSMSVGQRVTLSCKASENVGSYVSWYQQKPEQSPKLLIYGASNRNTGVPDRFTGSGSATDFTLTISSVQAEDLADYHCGQSSRYPLTFGGGTKLELKR
B15: F13P30A7: murine anti-CD138 hybridoma antibody; VH SEQ ID NO:83, VL SEQ ID NO:35 (antibody, listed as Mus musculus, V domains shown)
VH: B14 VH with T24A, V48I, V63A, T80L, V81L, H82Y, Y96F, H104Y, V109A
VL: B14 VL with V3I, S12A, Q17E, S31N, N53Y, N55Y, A68G, G100A
B16: F13P18D8: murine anti-CD138 hybridoma antibody; VH SEQ ID NO:84, VL SEQ ID NO:36 (antibody, listed as Mus musculus, V domains shown)
VH: EVQLLESGGGLVQPEGSLKLSCAASGFAFNTYAMNWVRQAPGKGLEWLARIRSKSNNYATYYADSVKDRFTISRDDSQGMLYLQMNNLKTEDTAMYYCVTDYYYVYFDVWGAGTTVTVSS
VL: B14 VL with Q17E, S31T, P40S, E41D, N55Y, S76T, A80S, G100A

System in the first series: not listed separately
The experiment in a line: Size exclusion chromatography (SEC), percent monomer. In kind it is physicochemical. Conditions: Table 19, after protein A purification. As for the experimental part:
The antibodies were purified utilizing pH dependent, protein A purification (HiTrap MabSelect SuRe 5 mL). After purification, the antibodies were buffer exchanged into 1× DPBS using zeba spin columns. The recovery and relative stability as determined by size exclusion chromatography (SEC) analysis varied between the humanized antibodies (SEC profiles not shown). The nomenclature sometimes takes the form of hF6 xky-rep where h stands for humanized, F6 stands for F12P16F6-derived, x stands for the first letter of the first procedure used to generate the humanized heavy chain sequence (e.g., x can be a=abb, s=sdr, f=fra, or c=cdr), k stands for kappa light chain, and y stands for the first letter of the first procedure used to generate the humanized light chain sequence (a=abb, s=sdr, f=fra, c=cdr).
Background: SEC sorts molecules by how far they enter the pores of the column.
For the molecule B1, the “SEC % Monomer” value was determined as 95.3%.
In the case of B2, the “SEC % Monomer” value is recorded as 95.1%.
As for B3, the “SEC % Monomer” value is reported as 75.2%.
Same read-out and setting: then B4, with 92.9%; and B5, with 95.4%; and B6, with 95.6%.
As for B7, the “SEC % Monomer” value was found to be 95.2%.
Turning to B8, the “SEC % Monomer” value worked out at 77.6%.
Still for that read-out and setting: the figure for B9 is 94.3%.
B10: the “SEC % Monomer” value came out at 88.8%.

The same series, now with this note: Table 19, after protein A purification; listed as F6 f2ka-rep (Lot 1).
B11: the “SEC % Monomer” value is on record as 79.1%.

Still in this series, the particulars now being: Table 19, after protein A purification; listed as F6 f2ka-rep (Lot 2).
Regarding B11, the “SEC % Monomer” value was 95%.

In the next series the target is T1, Human CD138 His. The experiment in a line: SPR kinetic binding, human CD138. Conditions: bivalent analyte fit. The procedure: Murine IgGs were purified from the hybridoma supernatants and the IgGs were subject to SPR (surface plasmon resonance) for kinetic binding measurements. Human or mouse CD138 His was immobilized on a GLM chip at […] on a BioRad Proteon. […] KDs were measured using bivalent analyte fit.
(In SPR one partner is held on a chip, and binding of the other changes the refractive index at the surface.)
In the case of B12, the “hCD138 ka” value came out at 128000 M⁻¹ s⁻¹ and the “hCD138 kd” value is 0.0117 s⁻¹.
For B13, in that order: 3.81e+06 M⁻¹ s⁻¹ and 0.033 s⁻¹.
Regarding B14, the “hCD138 ka” value was determined as 107000 M⁻¹ s⁻¹ and the “hCD138 kd” value came out at 0.00104 s⁻¹.
On to B15, for which the “hCD138 ka” value was 238000 M⁻¹ s⁻¹ and the “hCD138 kd” value stood at 0.00127 s⁻¹.
As for B16, the “hCD138 ka” value came out at 278000 M⁻¹ s⁻¹ and the “hCD138 kd” value was 0.000523 s⁻¹.
